Tests used:
Fyn = Fyn (UniProt P06241); experiment: phosphorylation enrichment, bacterial display (enrichment ratio); higher = better substrate or ligand; peptides without Tyr show the background
EPHB2 = EPHB2 (UniProt P29323); experiment: as above
Fes = Fes (UniProt P07332); experiment: as above
Fer (mouse) = experiment: as above
FGFR3 = FGFR3 (UniProt P22607); experiment: as above
AncSZ = experiment: as above
FGFR1 = FGFR1 (UniProt P11362); experiment: as above
Hck = Hck (UniProt P08631); experiment: as above
Hck, sequence (P08631 whole entry, looked up): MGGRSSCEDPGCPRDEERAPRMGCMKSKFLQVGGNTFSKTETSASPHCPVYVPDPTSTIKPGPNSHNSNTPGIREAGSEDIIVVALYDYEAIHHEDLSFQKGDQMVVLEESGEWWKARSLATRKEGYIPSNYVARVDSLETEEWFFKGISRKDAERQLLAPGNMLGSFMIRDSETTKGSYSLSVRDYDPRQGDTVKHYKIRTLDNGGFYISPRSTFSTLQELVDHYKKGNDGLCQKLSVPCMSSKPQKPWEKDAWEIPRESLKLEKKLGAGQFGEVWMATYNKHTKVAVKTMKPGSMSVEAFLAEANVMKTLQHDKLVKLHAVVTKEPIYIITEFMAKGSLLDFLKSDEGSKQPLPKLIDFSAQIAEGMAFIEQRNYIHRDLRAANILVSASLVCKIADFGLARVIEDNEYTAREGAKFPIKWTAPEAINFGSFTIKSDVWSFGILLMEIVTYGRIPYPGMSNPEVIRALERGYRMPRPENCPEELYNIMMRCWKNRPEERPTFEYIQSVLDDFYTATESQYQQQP

c-Src = experiment: as above
EPHB1 = EPHB1 (UniProt P54762); experiment: as above
EPHB1, sequence (P54762 whole entry, looked up): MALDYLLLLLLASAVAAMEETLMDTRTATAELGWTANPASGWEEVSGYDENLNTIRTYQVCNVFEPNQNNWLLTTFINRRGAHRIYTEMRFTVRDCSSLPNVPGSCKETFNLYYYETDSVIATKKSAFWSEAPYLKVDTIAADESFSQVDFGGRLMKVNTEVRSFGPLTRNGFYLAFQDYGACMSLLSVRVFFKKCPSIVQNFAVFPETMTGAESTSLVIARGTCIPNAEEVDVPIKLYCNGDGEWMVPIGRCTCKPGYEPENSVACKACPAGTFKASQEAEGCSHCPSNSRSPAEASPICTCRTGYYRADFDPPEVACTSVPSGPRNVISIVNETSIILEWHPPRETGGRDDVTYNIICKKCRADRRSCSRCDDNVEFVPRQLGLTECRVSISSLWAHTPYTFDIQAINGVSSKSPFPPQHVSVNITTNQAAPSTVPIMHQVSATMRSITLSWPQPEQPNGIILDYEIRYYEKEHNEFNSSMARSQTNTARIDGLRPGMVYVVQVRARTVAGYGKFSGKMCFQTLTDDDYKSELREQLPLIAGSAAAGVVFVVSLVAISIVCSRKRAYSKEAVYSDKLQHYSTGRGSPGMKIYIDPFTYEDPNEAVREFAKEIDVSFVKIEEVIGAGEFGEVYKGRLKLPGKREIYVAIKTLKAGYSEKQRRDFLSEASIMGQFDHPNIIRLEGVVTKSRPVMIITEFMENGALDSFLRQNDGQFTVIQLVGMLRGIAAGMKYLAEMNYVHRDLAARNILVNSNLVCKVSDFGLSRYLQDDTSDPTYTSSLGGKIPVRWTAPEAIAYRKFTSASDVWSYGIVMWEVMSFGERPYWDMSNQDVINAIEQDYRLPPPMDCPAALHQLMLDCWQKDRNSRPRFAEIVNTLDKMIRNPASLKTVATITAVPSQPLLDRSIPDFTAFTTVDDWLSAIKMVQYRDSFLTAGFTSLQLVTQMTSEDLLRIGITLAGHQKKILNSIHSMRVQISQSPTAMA

Jak2 = Jak2 (UniProt O60674); experiment: as above
c-Abl (mouse) = experiment: as above
MERTK = MERTK (UniProt Q12866); experiment: as above
Grb2 SH2 = Grb2 SH2 (UniProt P62993); experiment: SH2 binding enrichment of the phosphorylated peptide, bacterial display (enrichment ratio); higher = better substrate or ligand; peptides without Tyr show the background
Grb2 SH2, sequence (P62993 whole entry, looked up): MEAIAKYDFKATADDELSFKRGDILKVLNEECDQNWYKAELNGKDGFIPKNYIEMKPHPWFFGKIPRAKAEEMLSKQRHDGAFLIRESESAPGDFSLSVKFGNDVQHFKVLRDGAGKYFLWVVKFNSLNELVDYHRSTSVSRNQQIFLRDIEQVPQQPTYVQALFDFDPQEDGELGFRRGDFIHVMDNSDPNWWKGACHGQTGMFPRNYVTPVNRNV

c-Src SH2 = experiment: as above
SHP2-C SH2 = experiment: as above
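For SH2 binding enrichment of the phosphorylated peptide, bacterial display in this document: peptide library displayed on the E. coli surface as eCPX fusions, selected cells deep-sequenced, score is each peptide's frequency after selection divided by its frequency in the input.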
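For phosphorylation enrichment, bacterial display in this document: 11-residue human phosphosite peptides and single-mutation variants displayed on the E. coli surface, counted by deep sequencing, each peptide's frequency after selection divided by its frequency in the unselected input library; frequency after pTyr selection over input frequency; kinase dosed for 20-30% of maximal phosphorylation in three min.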

FGFR1, sequence (P11362 whole entry, looked up): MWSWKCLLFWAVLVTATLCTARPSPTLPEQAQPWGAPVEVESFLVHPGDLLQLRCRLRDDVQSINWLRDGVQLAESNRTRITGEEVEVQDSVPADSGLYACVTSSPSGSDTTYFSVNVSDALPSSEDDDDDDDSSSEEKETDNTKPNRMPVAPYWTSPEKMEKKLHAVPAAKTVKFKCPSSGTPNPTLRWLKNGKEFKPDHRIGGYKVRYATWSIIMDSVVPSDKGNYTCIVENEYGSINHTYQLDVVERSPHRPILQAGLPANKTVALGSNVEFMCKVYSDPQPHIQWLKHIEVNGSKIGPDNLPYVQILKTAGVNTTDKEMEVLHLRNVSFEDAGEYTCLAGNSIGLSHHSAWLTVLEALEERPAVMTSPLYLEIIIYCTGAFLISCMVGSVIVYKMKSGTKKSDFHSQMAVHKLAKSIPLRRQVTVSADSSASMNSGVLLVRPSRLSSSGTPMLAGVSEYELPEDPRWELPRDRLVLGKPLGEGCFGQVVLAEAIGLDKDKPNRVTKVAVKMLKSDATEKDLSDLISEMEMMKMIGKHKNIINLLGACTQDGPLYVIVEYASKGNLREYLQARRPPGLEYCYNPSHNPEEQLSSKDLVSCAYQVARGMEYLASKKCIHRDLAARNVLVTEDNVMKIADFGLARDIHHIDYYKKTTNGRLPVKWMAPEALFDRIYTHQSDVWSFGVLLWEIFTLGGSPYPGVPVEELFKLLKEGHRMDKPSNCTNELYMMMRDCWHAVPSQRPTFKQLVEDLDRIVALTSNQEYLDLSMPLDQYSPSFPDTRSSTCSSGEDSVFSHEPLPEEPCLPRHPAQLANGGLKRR
Fes, sequence (P07332 whole entry, looked up): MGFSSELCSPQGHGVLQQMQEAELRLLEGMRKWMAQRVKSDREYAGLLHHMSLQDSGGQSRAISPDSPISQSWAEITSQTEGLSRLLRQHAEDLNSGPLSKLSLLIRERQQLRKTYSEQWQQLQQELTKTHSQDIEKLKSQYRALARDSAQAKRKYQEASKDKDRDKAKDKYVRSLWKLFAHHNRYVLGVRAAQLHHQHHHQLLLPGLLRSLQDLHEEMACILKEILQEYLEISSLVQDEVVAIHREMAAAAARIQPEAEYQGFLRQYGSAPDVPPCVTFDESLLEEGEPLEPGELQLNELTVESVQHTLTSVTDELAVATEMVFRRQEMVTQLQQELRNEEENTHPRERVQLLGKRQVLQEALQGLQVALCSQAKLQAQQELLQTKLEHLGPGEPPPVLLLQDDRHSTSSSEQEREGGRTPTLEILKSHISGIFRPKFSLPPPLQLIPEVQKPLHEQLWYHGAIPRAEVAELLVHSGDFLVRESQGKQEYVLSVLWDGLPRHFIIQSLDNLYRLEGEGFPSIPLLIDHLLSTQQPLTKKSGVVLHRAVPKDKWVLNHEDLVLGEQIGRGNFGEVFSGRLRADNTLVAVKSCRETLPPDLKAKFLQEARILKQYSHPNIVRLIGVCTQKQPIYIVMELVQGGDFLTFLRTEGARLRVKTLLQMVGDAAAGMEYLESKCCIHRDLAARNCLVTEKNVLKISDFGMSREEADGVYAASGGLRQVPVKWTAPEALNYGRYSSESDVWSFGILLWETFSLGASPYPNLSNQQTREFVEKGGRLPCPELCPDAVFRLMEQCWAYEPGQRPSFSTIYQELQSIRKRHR
FGFR3, sequence (P22607 whole entry, looked up): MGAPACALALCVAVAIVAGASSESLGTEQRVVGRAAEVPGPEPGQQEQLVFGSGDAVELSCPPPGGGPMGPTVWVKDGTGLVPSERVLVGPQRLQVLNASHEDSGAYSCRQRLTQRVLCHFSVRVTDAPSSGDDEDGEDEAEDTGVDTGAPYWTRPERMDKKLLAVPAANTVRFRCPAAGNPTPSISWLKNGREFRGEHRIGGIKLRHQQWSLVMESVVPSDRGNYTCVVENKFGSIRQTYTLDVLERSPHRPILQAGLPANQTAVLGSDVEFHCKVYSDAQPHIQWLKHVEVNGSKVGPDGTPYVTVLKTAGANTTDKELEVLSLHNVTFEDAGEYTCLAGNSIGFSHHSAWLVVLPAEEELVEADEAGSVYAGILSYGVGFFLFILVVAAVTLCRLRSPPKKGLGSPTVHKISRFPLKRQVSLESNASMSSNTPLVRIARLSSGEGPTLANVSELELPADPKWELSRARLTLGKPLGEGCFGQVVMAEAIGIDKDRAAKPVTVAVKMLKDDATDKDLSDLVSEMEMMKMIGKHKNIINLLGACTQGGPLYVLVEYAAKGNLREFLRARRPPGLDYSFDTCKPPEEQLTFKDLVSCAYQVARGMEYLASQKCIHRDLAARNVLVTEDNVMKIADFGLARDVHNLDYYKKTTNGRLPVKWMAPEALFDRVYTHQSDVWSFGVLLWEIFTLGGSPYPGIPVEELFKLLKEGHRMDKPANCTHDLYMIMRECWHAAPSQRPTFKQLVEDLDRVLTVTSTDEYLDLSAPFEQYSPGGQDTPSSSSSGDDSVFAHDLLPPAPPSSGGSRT
Fyn, sequence (P06241 whole entry, looked up): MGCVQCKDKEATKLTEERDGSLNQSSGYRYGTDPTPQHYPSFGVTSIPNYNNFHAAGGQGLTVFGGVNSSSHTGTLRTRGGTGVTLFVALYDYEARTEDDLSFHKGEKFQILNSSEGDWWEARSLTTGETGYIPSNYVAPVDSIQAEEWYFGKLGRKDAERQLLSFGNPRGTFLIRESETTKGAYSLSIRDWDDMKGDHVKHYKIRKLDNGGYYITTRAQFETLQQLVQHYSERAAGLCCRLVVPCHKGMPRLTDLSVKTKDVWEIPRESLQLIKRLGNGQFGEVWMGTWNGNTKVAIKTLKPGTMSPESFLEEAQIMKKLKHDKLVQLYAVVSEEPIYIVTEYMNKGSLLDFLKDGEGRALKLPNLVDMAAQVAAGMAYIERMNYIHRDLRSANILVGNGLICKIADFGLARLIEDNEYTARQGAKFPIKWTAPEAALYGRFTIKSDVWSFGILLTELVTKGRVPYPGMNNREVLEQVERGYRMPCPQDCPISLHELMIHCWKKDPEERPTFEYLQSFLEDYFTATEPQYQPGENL

| Sequence | phosphorylation enrichment (Fyn) | phosphorylation enrichment (EPHB2) | phosphorylation enrichment (Fes) | phosphorylation enrichment (Fer (mouse)) | phosphorylation enrichment (FGFR3) | phosphorylation enrichment (AncSZ) | phosphorylation enrichment (FGFR1) | phosphorylation enrichment (Hck) | phosphorylation enrichment (c-Src) | phosphorylation enrichment (EPHB1) | phosphorylation enrichment (Jak2) | phosphorylation enrichment (c-Abl (mouse)) | phosphorylation enrichment (MERTK) | SH2 binding enrichment (Grb2 SH2) | SH2 binding enrichment (c-Src SH2) | SH2 binding enrichment (SHP2-C SH2) |
| --- | --- | --- | --- | --- | --- | --- | --- | --- | --- | --- | --- | --- | --- | --- | --- | --- |
| QPGDICHQTWA [GBA_Y244_Y244C] | 0.478 | 0.45 | 1.08 | 0.462 | 0.608 | 0.796 | 0.507 | 0.337 | 0.369 | 0.515 | 0.906 | 0.741 | 0.306 | 0.776 | 0.732 | 0.603 |
| GMSQAYSSSQR [DES_Y5] | 0.309 | 0.321 | 0.685 | 0.354 | 0.382 | 0.466 | 0.32 | 0.325 | 0.37 | 0.379 | 0.477 | 0.475 | 0.337 | 0.598 | 0.392 | 0.417 |
| DLGIQYKVLKP [CTNNA1_Y177_A179V] | 0.46 | 0.624 | 1.28 | 0.417 | 0.692 | 1.1 | 0.481 | 0.548 | 0.521 | 0.462 | 1.12 | 0.759 | 0.413 | 0.793 | 0.411 | 0.691 |
| CTTIHYNNMCN [TP53_Y234_Y236N] | 0.486 | 0.479 | 0.943 | 0.404 | 0.538 | 0.734 | 0.423 | 0.532 | 0.416 | 0.455 | 0.551 | 0.528 | 0.367 | 2.45 | 1.89 | 0.818 |
| CETMEYLESKQ [BTK_Y511_A508T] | 0.578 | 0.734 | 1.56 | 0.705 | 0.966 | 1.6 | 0.688 | 0.677 | 0.531 | 0.737 | 1.43 | 0.98 | 0.527 | 0.63 | 0.427 | 0.555 |
| LGNIVYSSLCG [BCOR_Y90_P85L] | 4.98 | 1.39 | 2.15 | 1.74 | 1.54 | 2.1 | 1.05 | 6.67 | 5.82 | 1.47 | 2.02 | 2.48 | 2.66 | 0.778 | 0.551 | 1.44 |
| VDEVLYEDSST [MTHFS_Y197] | 0.571 | 0.671 | 1.34 | 2.56 | 0.886 | 1.53 | 0.742 | 0.646 | 0.615 | 0.666 | 1.18 | 0.785 | 0.492 | 0.849 | 0.489 | 0.635 |
| ASMAKYYASGI [ACADSB_Y372_E376G] | 0.451 | 0.556 | 0.653 | 0.473 | 0.568 | 0.71 | 0.36 | 0.434 | 0.444 | 0.327 | 0.604 | 0.851 | 0.518 | 0.739 | 0.466 | 0.595 |
| SGVNKYSTAFG [GJB3_Y16] | 0.437 | 0.384 | 0.614 | 0.394 | 0.454 | 0.613 | 0.4 | 0.409 | 0.434 | 0.375 | 0.604 | 0.461 | 0.425 | 0.84 | 0.428 | 0.658 |
| IFCIQYNICAF [MYH4_Y820_R823C] | 0.421 | 0.9 | 1.53 | 0.538 | 0.807 | 1.28 | 0.451 | 0.45 | 0.513 | 0.686 | 1.56 | 1.14 | 0.421 | 1.7 | 1.21 | 1.47 |
| CTTIHSNYMCN [TP53_Y234_Y234S] | 0.478 | 0.563 | 0.915 | 0.44 | 0.588 | 0.853 | 0.483 | 0.448 | 0.387 | 0.542 | 0.608 | 0.576 | 0.479 | 1.1 | 1.02 | 1.39 |
| THEVRYISAGQ [SLCO4A1_Y77_V78I] | 0.391 | 0.396 | 0.705 | 0.379 | 0.53 | 0.683 | 0.361 | 0.416 | 0.418 | 0.426 | 0.669 | 0.838 | 0.408 | 0.726 | 0.495 | 0.65 |
| NKEPRYQEDPP [TJP2_Y479] | 0.693 | 0.607 | 0.999 | 0.59 | 0.823 | 0.852 | 0.625 | 0.546 | 0.461 | 0.525 | 0.832 | 0.48 | 0.508 | 1.43 | 0.78 | 0.822 |
| VTSLKYSTPPF [BRIP1_Y916_S919P_YF] | 0.472 | 0.493 | 0.841 | 0.38 | 0.517 | 0.607 | 0.491 | 0.52 | 0.436 | 0.342 | 0.599 | 0.595 | 0.457 | 0.929 | 0.492 | 0.56 |
| RRFSSYSQMEN [PKP1_Y120] | 1.48 | 0.89 | 2.57 | 0.833 | 1.18 | 2.29 | 1.34 | 0.896 | 0.614 | 0.984 | 0.657 | 0.808 | 1.06 | 0.79 | 0.559 | 0.774 |
| ESAAIYNPVIF [RHO_Y301_K296E_YF] | 8.03 | 0.579 | 1.25 | 17.2 | 0.675 | 1.03 | 0.673 | 9.56 | 6.99 | 0.452 | 0.707 | 1.28 | 4.16 | 0.848 | 0.493 | 0.678 |
| IFRASYVPFAA [RBM47_Y541_G538R_YF] | 0.463 | 0.548 | 1.04 | 0.388 | 0.635 | 0.859 | 0.508 | 0.506 | 0.384 | 0.645 | 0.784 | 0.527 | 0.389 | 0.8 | 0.542 | 0.681 |
| NYYDTYIKTCL [IQGAP2_Y1445] | 3.03 | 5.75 | 1.25 | 1.1 | 5.88 | 1.93 | 7.55 | 2.38 | 2.34 | 5.9 | 1.5 | 0.928 | 3.49 | 0.841 | 0.401 | 0.595 |
| WFPSTYVEEDE [VAV3_Y842] | 0.51 | 0.656 | 1.5 | 0.638 | 0.81 | 1.43 | 0.636 | 0.741 | 0.549 | 0.789 | 1.42 | 0.875 | 0.454 | 0.743 | 0.941 | 0.768 |
| QFLMKYVWSAS [ABCD1_Y337] | 0.3 | 0.541 | 1.49 | 0.565 | 0.759 | 1.15 | 0.513 | 0.587 | 0.559 | 0.582 | 1.42 | 0.929 | 0.528 | 0.677 | 0.499 | 0.668 |
| EKQARYEIVVE [CDH5_Y223] | 0.433 | 0.57 | 0.852 | 0.466 | 0.532 | 0.909 | 0.392 | 0.486 | 0.477 | 0.65 | 0.846 | 0.613 | 0.484 | 0.856 | 11 | 0.666 |
| LSGFGYRLSDQ [PDCD6_Y124] | 0.731 | 0.502 | 0.977 | 0.449 | 0.76 | 1.02 | 0.787 | 0.444 | 0.558 | 0.64 | 1.09 | 0.787 | 0.474 | 0.869 | 0.545 | 1.65 |
| LAEMNYVHQDL [EPHB1_Y740_R743Q] | 0.674 | 0.72 | 1.22 | 0.716 | 1.01 | 1.12 | 0.581 | 0.51 | 0.411 | 1.37 | 0.744 | 0.533 | 0.46 | 0.983 | 0.445 | 0.923 |
| SVTCTHSPALN [TP53_Y126_Y126H] | 0.52 | 0.548 | 1.01 | 0.542 | 0.612 | 0.862 | 0.404 | 0.529 | 0.459 | 0.498 | 0.759 | 0.818 | 0.4 | 0.742 | 0.444 | 0.389 |
| NYCPGYNNFYN [USH2A_Y467_R464C] | 0.64 | 0.753 | 1.06 | 0.588 | 0.791 | 0.988 | 0.638 | 0.613 | 1.26 | 0.888 | 1.12 | 0.761 | 0.566 | 1.68 | 2.35 | 0.821 |
| AGQEKYSAMRD [HRAS_Y64_E63K] | 0.427 | 0.424 | 0.837 | 0.37 | 0.498 | 0.574 | 0.324 | 0.423 | 0.416 | 0.318 | 0.618 | 0.604 | 0.312 | 0.703 | 0.496 | 0.639 |
| QNTGVYYDLYG [PTPN11_Y62_D61V] | 8.43 | 5.61 | 1.49 | 3.07 | 14.5 | 2 | 16.3 | 7.99 | 7.18 | 6.99 | 2.61 | 1.23 | 10.9 | 1.38 | 4.65 | 0.892 |
| HGEAFYSEVKP [PAK5_Y182_YF] | 2.95 | 1.37 | 1.04 | 12.3 | 2.49 | 1 | 3.57 | 4.38 | 2.27 | 2.01 | 0.609 | 1.02 | 9.01 | 0.887 | 1.22 | 0.868 |
| ILTLKYPIELG [ACTA1_Y71_H75L] | 0.435 | 0.572 | 0.986 | 0.457 | 0.601 | 0.886 | 0.47 | 0.518 | 0.352 | 0.578 | 0.74 | 0.476 | 0.352 | 1.14 | 0.731 | 0.94 |
